# Test results as given in US20230241113A1 (IMMATICS BIOTECHNOLOGIES, published 2023).
# B1: altORF-011 (peptide)
# peptide: FLDEGSLLRL
# notes: also called FLDEGSLLRL
# B2: altORF-016 (peptide)
# peptide: KMMTFFQGL
# notes: also called KMMTFFQGL
# B3: altORF-030 (peptide)
# peptide: VLSVSAVLGA
# notes: also called VLSVSAVLGA
# B4: altORF-037 (peptide)
# peptide: YIYEDEVRL
# notes: also called YIYEDEVRL
# B5: altORF-066 (peptide)
# peptide: KLLADAFKV
# notes: also called KLLADAFKV
# B6: altORF-044 (peptide)
# peptide: AMVEIIPKV
# notes: also called AMVEIIPKV
# B7: altORF-029 (peptide)
# peptide: VVLPIVITL
# notes: also called VVLPIVITL
# B8: altORF-052 (peptide)
# peptide: GLSPDQVFL
# notes: also called GLSPDQVFL
# B9: altORF-035 (peptide)
# peptide: KILDEFYNV
# notes: also called KILDEFYNV
# B10: altORF-018 (peptide)
# peptide: VLISLPGKV
# notes: also called VLISLPGKV
# B11: altORF-062 (peptide)
# peptide: LLLALRLSL
# notes: also called LLLALRLSL
# B12: altORF-058 (peptide)
# peptide: LLLATLENL
# notes: also called LLLATLENL
# B13: altORF-036 (peptide)
# peptide: SLSAWLPSL
# notes: also called SLSAWLPSL
# B14: altORF-020 (peptide)
# peptide: SLYDVPVGA
# notes: also called SLYDVPVGA
# B15: altORF-002 (peptide)
# peptide: YLGDSHVLL
# notes: also called YLGDSHVLL
# B16: altORF-015 (peptide)
# peptide: VLWDLRPSSLI
# notes: also called VLWDLRPSSLI
# B17: altORF-010 (peptide)
# peptide: HLDSMNVSI
# notes: also called HLDSMNVSI
# B18: altORF-017 (peptide)
# peptide: MLLPWLPKL
# notes: also called MLLPWLPKL
# B19: altORF-048 (peptide)
# peptide: GLASYLDRV
# notes: also called GLASYLDRV
# B20: altORF-059 (peptide)
# peptide: VLPWQPLLL
# notes: also called VLPWQPLLL
# B21: altORF-025 (peptide)
# peptide: IAAGVPNTDA
# notes: also called IAAGVPNTDA
# B22: altORF-023 (peptide)
# peptide: ISVLNLSAI
# notes: also called ISVLNLSAI
# B23: altORF-033 (peptide)
# peptide: VLLNSNYPV
# notes: also called VLLNSNYPV
# B24: altORF-042 (peptide)
# peptide: WLIPRQLAAA
# notes: also called WLIPRQLAAA
# B25: altORF-040 (peptide)
# peptide: WITPVIPAL
# notes: also called WITPVIPAL
# B26: COLPDG-001 (peptide)
# peptide: ALLDVLVKL
# notes: also called ALLDVLVKL
# B27: altORF-013 (peptide)
# peptide: NLVMPLLHI
# notes: also called NLVMPLLHI
# B28: altORF-063 (peptide)
# peptide: IAISQLTFV
# notes: also called IAISQLTFV
# B29: altORF-047 (peptide)
# peptide: FLWDPRDVVL
# notes: also called FLWDPRDVVL
# B30: altORF-049 (peptide)
# peptide: GLLTQVHIL
# notes: also called GLLTQVHIL
# B31: altORF-055 (peptide)
# peptide: YVLMTSLLL
# notes: also called YVLMTSLLL
# B32: altORF-050 (peptide)
# peptide: LAFVSHVLI
# notes: also called LAFVSHVLI
# B33: altORF-046 (peptide)
# peptide: MLAEIHPKA
# notes: also called MLAEIHPKA
# B34: altORF-045 (peptide)
# peptide: ALLPGVPGL
# notes: also called ALLPGVPGL
# B35: altORF-027 (peptide)
# peptide: LLWEFPSMA
# notes: also called LLWEFPSMA
# B36: altORF-014 (peptide)
# peptide: ALLDAEQSPVAL
# notes: also called ALLDAEQSPVAL
# B37: altORF-024 (peptide)
# peptide: KLWTSLVNL
# notes: also called KLWTSLVNL
# B38: altORF-034 (peptide)
# peptide: FQVTRTTGV
# notes: also called FQVTRTTGV
# B39: altORF-019 (peptide)
# peptide: FVFISPSFL
# notes: also called FVFISPSFL
# B40: altORF-039 (peptide)
# peptide: LMASEGIWESSL
# notes: also called LMASEGIWESSL
# B41: altORF-009 (peptide)
# peptide: ALLPHAPEAV
# notes: also called ALLPHAPEAV
# B42: NUDCD2-001 (peptide)
# peptide: KLLDFSTRI
# notes: also called KLLDFSTRI
# B43: altORF-051 (peptide)
# peptide: TISISLSSV
# notes: also called TISISLSSV
# B44: altORF-056 (peptide)
# peptide: MIISHRALEL
# notes: also called MIISHRALEL
# B45: altORF-060 (peptide)
# peptide: SLLGKPGLTI
# notes: also called SLLGKPGLTI
# B46: altORF-061 (peptide)
# peptide: LSFKRSLSI
# notes: also called LSFKRSLSI
# B47: altORF-005 (peptide)
# peptide: ALWEEVKATSL
# notes: also called ALWEEVKATSL
# B48: altORF-064 (peptide)
# peptide: ILNELLNSI
# notes: also called ILNELLNSI
# B49: altORF-003 (peptide)
# peptide: LVWEVVESV
# notes: also called LVWEVVESV
# B50: altORF-001 (peptide)
# peptide: FLLVPSPIWQL
# notes: also called FLLVPSPIWQL
# B51: altORF-065 (peptide)
# peptide: ALKELMGPA
# notes: also called ALKELMGPA
# B52: altORF-057 (peptide)
# peptide: LAASTTFLGV
# notes: also called LAASTTFLGV
# B53: altORF-054 (peptide)
# peptide: IITNLIVNI
# notes: also called IITNLIVNI
# B54: altORF-038 (peptide)
# peptide: FTLPFLVNL
# notes: also called FTLPFLVNL
# B55: altORF-012 (peptide)
# peptide: LLIEVSEEL
# notes: also called LLIEVSEEL
# B56: altORF-043 (peptide)
# peptide: ALYHQSPLL
# notes: also called ALYHQSPLL
# B57: altORF-021 (peptide)
# peptide: GLEVLDALL
# notes: also called GLEVLDALL
# B58: altORF-031 (peptide)
# peptide: FASERPPSV
# notes: also called FASERPPSV
# B59: altORF-067 (peptide)
# peptide: LLCPVVLQL
# notes: also called LLCPVVLQL
# B60: altORF-004 (peptide)
# peptide: ALHDSPVYL
# notes: also called ALHDSPVYL
# B61: altORF-026 (peptide)
# peptide: SQLEKPETA
# notes: also called SQLEKPETA
# B62: altORF-041 (peptide)
# peptide: AIWSTILIA
# notes: also called AIWSTILIA
# B63: altORF-022 (peptide)
# peptide: TLTSLNILL
# notes: also called TLTSLNILL
# B64: altORF-028 (peptide)
# peptide: LLRLTLLPL
# notes: also called LLRLTLLPL
# B65: altORF-053 (peptide)
# peptide: MVQQEKLFV
# notes: also called MVQQEKLFV
# B66: altORF-032 (peptide)
# peptide: LLNVEPAGA
# notes: also called LLNVEPAGA
# B67: altORF-008 (peptide)
# peptide: SLLDKLSGI
# notes: also called SLLDKLSGI
# Target: T1, HLA-A*02:01 (human)
# T1 construct: captured on streptavidin plates, detected with anti-β2m; also called peptide-receptive MHC molecules; MHC class I
# Test: UV-ligand exchange + anti-β2m ELISA; exchange yield grade: ≥10% +, ≥20% ++, ≥50 +++, ≥75% ++++
# Protocol: The individual peptide-MHC complexes were produced by UV-ligand exchange, where a UV-sensitive peptide is cleaved upon UV-irradiation and exchanged with the peptide of interest as analyzed. Only peptide candidates that can effectively bind and stabilize the peptide-receptive MHC molecules prevent dissociation of the MHC complexes. To determine the yield of the exchange reaction, an ELISA was performed based on the detection of the light chain (β2m) of stabilized MHC complexes. The assay was performed as generally described in Rodenko et al. (Rodenko et al., 2006).
# 96 well MAXISorp plates (NUNC) were coated over night with 2 μg/ml streptavidin in PBS at room temperature, washed 4× and blocked for 1 h at 37° C. in 2% BSA containing blocking buffer. Refolded HLA-A*02:01/MLA-001 monomers served as standards, covering the range of 15-500 ng/ml. Peptide-MHC monomers of the UV-exchange reaction were diluted 100 fold in blocking buffer. Samples were incubated for 1 h at 37° C., washed four times, incubated with 2 μg/ml HRP conjugated anti-β2m for 1 h at 37° C., washed again and detected with TMB solution that is stopped with […]. Absorption was measured at 450 nm. Candidate peptides that show a high exchange yield (preferably higher than 50%, most preferred higher than 75%) are generally preferred for a generation and production of antibodies or fragments thereof, and/or T cell receptors or fragments thereof, as they show sufficient avidity to the MHC molecules and prevent dissociation of the MHC complexes.
row,peptide exchange yield [%],Binder
1,≥ 75,B1
2,≥ 75,B2
3,50 to 75,B3
4,≥ 75,B4
5,≥ 75,B5
6,≥ 75,B6
7,≥ 75,B7
8,≥ 75,B8
9,≥ 75,B9
10,20 to 50,B10
11,10 to 20,B11
12,≥ 75,B12
13,≥ 75,B13
14,≥ 75,B14
15,≥ 75,B15
16,≥ 75,B16
17,≥ 75,B17
18,≥ 75,B18
19,≥ 75,B19
20,20 to 50,B20
21,20 to 50,B21
22,20 to 50,B22
23,≥ 75,B23

row,peptide exchange yield [%],Binder
1,≥ 75,B24
2,≥ 75,B25
3,≥ 75,B26
4,20 to 50,B27
5,≥ 75,B28
6,≥ 75,B29
7,≥ 75,B30
8,≥ 75,B31
9,20 to 50,B32
10,≥ 75,B33
11,≥ 75,B34
12,≥ 75,B35
13,≥ 75,B36
14,≥ 75,B37
15,≥ 75,B38
16,50 to 75,B39
17,50 to 75,B40
18,50 to 75,B41
19,≥ 75,B42
20,≥ 75,B43
21,20 to 50,B44
22,≥ 75,B45
23,20 to 50,B46

row,peptide exchange yield [%],Binder
1,≥ 75,B47
2,≥ 75,B48
3,≥ 75,B49
4,≥ 75,B50
5,20 to 50,B51
6,≥ 75,B52
7,50 to 75,B53
8,≥ 75,B54
9,≥ 75,B55
10,≥ 75,B56
11,20 to 50,B57
12,≥ 75,B58
13,≥ 75,B59
14,≥ 75,B60
15,50 to 75,B61
16,20 to 50,B62
17,≥ 75,B63
18,20 to 50,B64
19,50 to 75,B65
20,≥ 75,B66
21,≥ 75,B67
